# Experimental data published in the RNAGym collection of RNA variant scans (doi:10.1021/acssynbio.7b00057).
# B1: Pistol ribozyme (parent)
# chain: GGGUCGUUGUUCCAUAAUCGCGUGGAUAUGGCACGCAAGUUUCUACCGGGCACCGUAAAUGUCCGACUGGAGCCGUUCGGGCGGCUAUAAACAGACCUCAGGCCCGAAGCGUGGCGGCACCUGCCGCCGGUGGUAAAAAAGAUCGGAAGAGCACACGUCU
# Variants of: B1
# Experiment: aptazyme ON/OFF ratio, guanine; higher = stronger switching; co-transcriptional cleavage with and without guanine
row,Variant,aptazyme ON/OFF ratio
1,U7A U8C G9A U10A U11G C12G C13G,1.31
2,U7A U8C G9A U10A U11G C12G C13U,1.11
3,U7A U8C G9A U10A U11G C12G C13A,1.11
4,U7A U8C G9A U11C C12U,1.14
5,U7A U8C G9A U11C C12A,1.21
6,U7A U8C G9A U11C C12G,1.24
7,U7A U8C G9A U10G C13U,1.09
8,U7A U8C G9A U10G C13G,1.2
9,U7A U8C G9A U10G C13A,1.17
10,U7A U8A U11A C13A,1.11
11,U7A U8A U11A C13U,1.11
12,U7A U8A U11A C13G,1.09
13,U7A U8C G9A U10A U11G C12G,1.16
14,U7A U8C G9A U10A U11G C12A,1.06
15,U7A U8C G9A U10A U11G C12U,1.45
16,U7A U8C G9A U10A U11A,1.19
17,U7A U8C G9A U10A U11C,1.07
18,U7A U8C G9A U10A U11G,1.26
19,U7A U8C G9A U10C C12A C13G,1.18
20,U7A U8C G9A U10C C12A C13A,1.2
21,U7A U8C G9A U10C C12A C13U,1.13
22,U7A U8C G9A C12U C13U,1.1
23,U7A U8C G9A C12U C13A,1.07
24,U7A U8C G9A C12U C13G,1.09

row,Variant,aptazyme ON/OFF ratio
1,U7A U8C G9A U10G C12G,1.15
2,U7A U8C G9A U10G C12A,1.1
3,U7A U8C G9A U10G C12U,1.23
4,U7A U8A U11G C13U,1.2
5,U7A U8A U11G C13G,1.1
6,U7A U8A U11G C13A,1.16
7,U7A U8C G9A U10A C12U C13U,1.12
8,U7A U8C G9A U10A C12U C13A,1.11
9,U7A U8C G9A U10A C12U C13G,1.2
10,U7A U8C G9A U10C U11G C12U,1.23
11,U7A U8C G9A U10C U11G C12G,1.27
12,U7A U8C G9A U10C U11G C12A,1.09
13,U7A U8C G9A U10A U11A C13G,1.12
14,U7A U8C G9A U10A U11A C13A,1.35
15,U7A U8C G9A U10A U11A C13U,1.18
16,U7A U8A U11A,1.22
17,U7A U8A U11C,1.38
18,U7A U8A U11G,1.25
19,U7A U8A U11C C12G C13G,1.24
20,U7A U8A U11C C12G C13A,1.25
21,U7A U8A U11C C12G C13U,1.46
22,U7A U8C G9A U11G C12U C13A,1.28
23,U7A U8C G9A U11G C12U C13G,1.22
24,U7A U8C G9A U10G C12A C13G,1.2

row,Variant,aptazyme ON/OFF ratio
1,U7A U8C G9A U10G C12A C13A,1.24
2,U7A U8C G9A U10G C12A C13U,1.19
3,U7A U8C G9A U11A C12G,1.26
4,U7A U8C G9A U11A C12A,1.43
5,U7A U8C G9A U11A C12U,1.25
6,U7A U8C G9A U10C C13G,1.07
7,U7A U8C G9A U10C C13A,1.09
8,U7A U8C G9A U10C C13U,1.12
9,U7A U8C G9A U10A U11C C12G C13G,1.17
10,U7A U8C G9A U10A U11C C12G C13A,1.09
11,U7A U8C G9A U10A U11C C12G C13U,1.2
12,U7A U8C G9A C13G,1.04
13,U7A U8C G9A C13A,1.14
14,U7A U8C G9A C13U,1.18
15,U7A U8C G9A C12A C13G,1.14
16,U7A U8C G9A C12A C13U,1.16
17,U7A U8C G9A C12A C13A,1.18
18,U7A U8C,1.98
19,U7A U8C G9A U10C C12U C13G,1.1
20,U7A U8C G9A U10C C12U C13U,1.26
21,U7A U8C G9A U10C C12U C13A,1.17
22,U7A U8A U11G C12G C13G,1.24
23,U7A U8A U11G C12G C13A,1.1
24,U7A U8A U11G C12G C13U,1.46

row,Variant,aptazyme ON/OFF ratio
1,U7A U8C G9A U10A U11A C12G C13G,1.13
2,U7A U8C G9A U10A U11A C12G C13A,1.11
3,U7A U8C G9A U10A U11A C12G C13U,1.21
4,U7A U8C G9A U10G U11G C13U,1.18
5,U7A U8C G9A U10G U11G C13G,1.15
6,U7A U8C G9A U10G U11G C13A,1.25
7,U7A U8C G9A U10A U11C C12A C13A,1.14
8,U7A U8C G9A U10A U11C C12A C13G,1.18
9,U7A U8C G9A U10A U11C C12A C13U,1.25
10,U7A U8A U10G U11G C12U C13A,1.23
11,U7A U8A U10G U11G C12U C13G,1.26
12,U7A U8A U10G U11G C12U C13U,1.27
13,U7A U8A U11A C12G,1.2
14,U7A U8A U11A C12U,1.31
15,U7A U8A U11A C12A,1.44
16,U7A U8A U10G U11G C13U,1.5
17,U7A U8A U10G U11G C13G,1.12
18,U7A U8A U10G U11G C13A,1.07
19,U7A U8C G9A U11G C12A C13G,1.21
20,U7A U8C G9A U11G C12A C13U,1.08
21,U7A U8C G9A U11G C12A C13A,1.22
22,U7A U8C G9A U10G U11G C12G C13A,1.42
23,U7A U8C G9A U10G U11G C12G C13G,1.09
24,U7A U8C G9A U10G U11G C12G C13U,1.12

row,Variant,aptazyme ON/OFF ratio
1,U7A U8C G9A U10C U11G C12G C13A,1.23
2,U7A U8C G9A U10C U11G C12G C13G,1.29
3,U7A U8C G9A U10C U11G C12G C13U,1.1
4,U7A U8A U10G U11G C12A C13G,1.16
5,U7A U8A U10G U11G C12A C13U,1.34
6,U7A U8A U10G U11G C12A C13A,1.21
7,U7A U8C G9A U10C U11C C12G,1.11
8,U7A U8C G9A U10C U11C C12A,1.18
9,U7A U8C G9A U10C U11C C12U,1.04
10,U7A U8C G9A U10A U11G C12A C13A,1.08
11,U7A U8C G9A U10A U11G C12A C13U,1.16
12,U7A U8C G9A U10A U11G C12A C13G,1.23
13,U7A U8C C12U C13G,1.27
14,U7A U8C C12U C13U,1.27
15,U7A U8C C12U C13A,1.3
16,U7A U8A U10G U11G C12G C13G,1.09
17,U7A U8A U10G U11G C12G C13A,1.07
18,U7A U8A U10G U11G C12G C13U,1.4
19,U7A U8A U11C C12A C13G,1.42
20,U7A U8A U11C C12A C13U,1.69
21,U7A U8A U11C C12A C13A,1.02
22,U7A U8C G9A U10C U11C,1.08
23,U7A U8C G9A U10C U11G,1.16
24,U7A U8C G9A U10C U11A,1.24

row,Variant,aptazyme ON/OFF ratio
1,U7A U8C G9A U10C U11C C13U,1.02
2,U7A U8C G9A U10C U11C C13G,1
3,U7A U8C G9A U10C U11C C13A,1.04
4,U7A U8C G9A U11C C13A,1.06
5,U7A U8C G9A U11C C13U,1.1
6,U7A U8C G9A U11C C13G,1.08
7,U7A U8C G9A U10C U11C C12G C13A,1.06
8,U7A U8C G9A U10C U11C C12G C13U,1.06
9,U7A U8C G9A U10C U11C C12G C13G,1.07
10,U7A U8C G9A U10G U11G C12U C13U,1.07
11,U7A U8C G9A U10G U11G C12U C13G,1.33
12,U7A U8C G9A U10G U11G C12U C13A,1.29
13,U7A U8C G9A U10A U11G C12U C13U,1.31
14,U7A U8C G9A U10A U11G C12U C13G,1.24
15,U7A U8C G9A U10A U11G C12U C13A,1.2
16,U7A U8C G9A U10G U11A C13U,1.04
17,U7A U8C G9A U10G U11A C13G,1.05
18,U7A U8C G9A U10G U11A C13A,1.04
19,U7A U8A U10G U11C C13G,1.11
20,U7A U8A U10G U11C C13U,1.04
21,U7A U8A U11C C12U C13U,1.59
22,U7A U8A U11C C12U C13G,1.21
23,U7A U8A U11C C12U C13A,1.21
24,U7A U8C G9A U10C C12A,1.21

row,Variant,aptazyme ON/OFF ratio
1,U7A U8C G9A U10C C12G,1.29
2,U7A U8C G9A U10C C12U,1.35
3,U7A U8C G9A U10A U11A C12A C13G,1.18
4,U7A U8C G9A U10A U11A C12A C13U,1.25
5,U7A U8C G9A U10A U11A C12A C13A,1.11
6,U7A U8A U11G C12A,1.13
7,U7A U8A U11G C12G,1.27
8,U7A U8A U11G C12U,1.27
9,U7A U8C G9A U11A C12A C13G,1.09
10,U7A U8C G9A U11A C12A C13U,1.17
11,U7A U8C G9A U11A C12A C13A,1.31
12,U7A U8C G9A U11C C12A C13G,1.16
13,U7A U8C G9A U11C C12A C13U,1.23
14,U7A U8C G9A U11C C12A C13A,1.19
15,U7A U8C G9A U11A C13G,1.09
16,U7A U8C G9A U11A C13U,1.3
17,U7A U8C G9A U11A C13A,1.16
18,U7A U8C G9A U10G C12U C13A,1.23
19,U7A U8C G9A U10G C12U C13G,1.18
20,U7A U8C G9A U10G C12U C13U,1.39
21,U7A U8A U10G U11G C12A,1.3
22,U7A U8A U10G U11G C12G,1.33
23,U7A U8A U10G U11G C12U,1.46
